Data published in US7125704B2, “Gluconate dehydratase” (priority 2003, dated 2006).

Experiment: Thermostability and storage stability of purified gluconate dehydratase (remaining activity after standing)
Assay type: physicochemical, Achromobacter xylosoxidans strain ATCC 9220
Procedure: The gluconate dehydratase activity in the present invention produces 2-keto-3-deoxy-D-gluconic acid, using D-gluconic acid as the substrate. The activity can be determined as follows: A reaction mixture in an amount of 1 mL containing […] of a Tris buffer (pH 8.5), 40 μmol of sodium D-gluconate, 1 μmol of magnesium chloride, and the gluconate dehydratase is allowed to react at 37° C. for 10 minutes, and 200 μL of 1 M hydrochloric acid solution is added to the reaction mixture to stop the reaction; and then, the amount of the resulting 2-keto-3-deoxy-D-gluconic acid is determined by high-performance liquid chromatography (column: Shodex Asahipak NH2P-50 4E, produced by Showa Denko, column temperature: 40° C., mobile phase: 50 mM sodium dihydrogen phosphate solution, flow rate: 1 mL/min, detection at 210 nm). An amount of enzyme for catalyzing the production of 1 μmol of 2-keto-3-deoxy-D-gluconic acid for one minute is defined as 1 U. The amount of protein may be determined by a dye-binding method using a Bio-Rad protein assay kit.
Samples of the purified gluconate dehydratase solution prepared in Example 3, which was dissolved in the 30 mM Tris buffer (pH 8.5) containing 1 mM sodium D-gluconate and 1 mM magnesium chloride, […] Another sample was allowed to stand at 4° C. for 7 days and 30 days. […]

B1: Gluconate Dehydratase: heat-resistant gluconate dehydratase purified from Achromobacter xylosoxidans strain ATCC 9220, amino acid sequence SEQ ID NO:2 (protein)
chain: MTDTPRKLRSQKWFDDPAHADMTAIYVERYLNYGLTRQELQSGRPIIGIAQTGSDLAPCNRHHLALAERIKAGIRDAGGIPMEFPVHPLAEQGRRPTAALDRNLAYLGLVEILHGYPLDGVVLTTGCDKTTPACLMAAATVDIPAIVLSGGPMLDGWHDGQRVGSGTVIWHARNLMAAGKLDYEGFMTLATASSPSIGHCNTMGTALSMNSLAEALGMSLPTCASIPAPYRERGQMAYATGLRICDMVREDLRPSRILTREAFENAIVVASALGASSNCPPHLIAMARHAGIDLSLDDWQRLGEDVPLLVNCVPAGEHLGEGFHRAGGVPAVMHELLAAGRLHADCATVSGKTIGEIAAGAKTHDADVIRGCDAPLKHRAGFIVLSGNFFDSAVIKMSVVGEAFRRAYLSAPGDENAFEARAIVFEGPEDYHARIEDPALNIDEHCILVIRGAGTVGYPGSAEVVNMAPPSHLIKRGIDSLPCLGDGRQSGTSASPSILNMSPEAAVGGGLALLRTGDRIRVDLNQRSVIALVDEAELARRRQDPPYQPPPAQTPWQELYRQLVGQLSTGGCLEPSTLYLKVVETRGDPRHSH
modifications: Achromobacter xylosoxidans
buffer, 168 h
  Remaining activity (%): 100%
Storage at 0° C. in Tris buffer (pH 8.0 to 8.8), 1 mM sodium D-gluconate, 1 mM magnesium chloride (same conditions as the M250 report)
  Storage stability of the activity: maintain the activity stably for one month
